Paper PMC11484851, “Structure of endothelin ETB receptor–Gi complex in a conformation stabilized by unique NPxxL motif” (Communications Biology, 2024)

Target: T1, wild-type Gαi1 subunit (human, UniProt P63096 1-354)
T1 construct: Gαi1, human, wild type; the α chain of m4; source: Sf9 or Hi5 insect cells, co-expressed with Gβ1 and Gγ2, purified as heterotrimer (TALON, SEC)
Experiment: cryo-EM structure; purified ET-1-bound ETBR mixed with 1.2 molar excess of wild-type or dominant negative Gi1 heterotrimer (20-24 °C, 2 h), apyrase and λ-phosphatase, then 1.2 molar excess of scFv16; complex purified on 2A5 anti-ETBR resin and by SEC in LMNG/CHS/GDN with 0.1 μM ET-1; single-particle cryo-EM
Conditions: both partners purified

T1 sequence (P63096 whole entry): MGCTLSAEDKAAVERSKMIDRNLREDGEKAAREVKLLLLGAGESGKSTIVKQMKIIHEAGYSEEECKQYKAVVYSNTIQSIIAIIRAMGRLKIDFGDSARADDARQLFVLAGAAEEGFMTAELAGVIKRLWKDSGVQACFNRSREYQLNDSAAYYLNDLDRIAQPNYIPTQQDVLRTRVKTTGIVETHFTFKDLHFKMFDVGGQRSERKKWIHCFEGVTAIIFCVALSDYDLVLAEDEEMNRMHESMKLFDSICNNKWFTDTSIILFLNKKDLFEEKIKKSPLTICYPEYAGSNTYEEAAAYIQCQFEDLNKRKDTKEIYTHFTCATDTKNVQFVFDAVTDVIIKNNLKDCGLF

B1: endothelin type B receptor, thermostabilized construct used for cryo-EM (R124Y, C396A, C400A, C405A, L66-S407 after 3C cleavage) (receptor, human, UniProt P24530 66-407, looked up)
chain: LAPAEVPKGDRTAGSPPRTISPPPCQGPIEIKETFKYINTVVSCLVFVLGIIGNSTLLYIIYKNKCMRNGPNILIASLALGDLLHIVIDIPINVYKLLAEDWPFGAEMCKLVPFIQKASVGITVLSLCALSIDRYRAVASWSRIKGIGVPKWTAVEIVLIWVVSVVLAVPEAIGFDIITMDYKGSYLRICLLHPVQKTAFMQFYKTAKDWWLFSFYFCLPLAITAFFYTLMTCEMLRKKSGMQIALNDHLKQRREVAKTVFCLVLVFALCWLPLHLSRILKLTLYNQNDPNRCELLSFLLVLDYIGINMASLNSCINPIALYLVSKRFKNAFKSALCCWAQS
notes: endothelin type B receptor (ETBR), human; C-terminus truncated at S407, followed by a 3C site and EGFP-His tag that was cleaved; Residues of the 3C sites probably remain after cleavage (GP before L66, LEVLFQ after S407); also called ETBR; ETB receptor; source: Sf9, purified (TALON, 3C cleavage, SEC) in LMNG/CHS with ET-1; not shown: Flag, N-terminal, cleaved; EGFP-His9, C-terminal, cleaved
binding result: binds
